Measurements: publication PMC3438196

Experiments:
Experiment in all cases: two-hybrid; MAPPIT (mammalian two-hybrid) in intact HEK293T cells: bait on the EpoR/leptin receptor chimera, prey on gp130 fragments, pXP2d2-rPAP1-luciferase reporter; fold induction of luciferase, Epo-stimulated (10 ng/ml hEpo) over unstimulated; 6-well or 96-well calcium phosphate transfection
[1] = molecular target: Apobec3G TF106-107AA MAPPIT bait (human) (UniProt Q9HC16)
[2] = molecular target: Apobec3G E110S MAPPIT bait (human) (UniProt Q9HC16)
Chain of Apobec3G E110S MAPPIT bait (human) (Q9HC16 whole entry E110S): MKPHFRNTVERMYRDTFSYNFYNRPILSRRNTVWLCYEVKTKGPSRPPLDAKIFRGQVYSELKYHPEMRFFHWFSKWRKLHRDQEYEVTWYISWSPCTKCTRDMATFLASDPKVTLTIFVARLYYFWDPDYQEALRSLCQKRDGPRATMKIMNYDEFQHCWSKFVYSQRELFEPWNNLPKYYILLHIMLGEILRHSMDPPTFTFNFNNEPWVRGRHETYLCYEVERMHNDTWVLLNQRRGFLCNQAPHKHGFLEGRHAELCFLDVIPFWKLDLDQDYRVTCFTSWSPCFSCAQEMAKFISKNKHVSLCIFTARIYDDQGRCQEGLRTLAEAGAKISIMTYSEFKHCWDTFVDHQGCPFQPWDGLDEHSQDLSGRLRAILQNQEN

[3] = molecular target: Apobec3G T32Q MAPPIT bait (human) (UniProt Q9HC16)
Chain of Apobec3G T32Q MAPPIT bait (human) (Q9HC16 whole entry T32Q): as the sequence (Q9HC16 whole entry E110S) above, with T32Q, S110E counted along it

[4] = molecular target: Apobec3G D128Q MAPPIT bait (human) (UniProt Q9HC16)
Chain of Apobec3G D128Q MAPPIT bait (human) (Q9HC16 whole entry D128Q): as the sequence (Q9HC16 whole entry E110S) above, with S110E, D128Q counted along it

[5] = molecular target: Apobec3G R14S MAPPIT bait (human) (UniProt Q9HC16)
Chain of Apobec3G R14S MAPPIT bait (human) (Q9HC16 whole entry R14S): as the sequence (Q9HC16 whole entry E110S) above, with R14S, S110E counted along it

[6] = molecular target: Apobec3G T32D MAPPIT bait (human) (UniProt Q9HC16)
Chain of Apobec3G T32D MAPPIT bait (human) (Q9HC16 whole entry T32D): as the sequence (Q9HC16 whole entry E110S) above, with T32D, S110E counted along it

[7] = molecular target: Apobec3G W34A MAPPIT bait (human) (UniProt Q9HC16)
Chain of Apobec3G W34A MAPPIT bait (human) (Q9HC16 whole entry W34A): as the sequence (Q9HC16 whole entry E110S) above, with W34A, S110E counted along it

[8] = molecular target: Apobec3G Y124A MAPPIT bait (human) (UniProt Q9HC16)
Chain of Apobec3G Y124A MAPPIT bait (human) (Q9HC16 whole entry Y124A): as the sequence (Q9HC16 whole entry E110S) above, with S110E, Y124A counted along it

[9] = molecular target: Apobec3G RD102-103SS MAPPIT bait (human) (UniProt Q9HC16)
Chain of Apobec3G RD102-103SS MAPPIT bait (human) (Q9HC16 whole entry R102S/D103S): as the sequence (Q9HC16 whole entry E110S) above, with R102S, D103S, S110E counted along it

[10] = molecular target: Apobec3G K99D MAPPIT bait (human) (UniProt Q9HC16)
Chain of Apobec3G K99D MAPPIT bait (human) (Q9HC16 whole entry K99D): as the sequence (Q9HC16 whole entry E110S) above, with K99D, S110E counted along it

[11] = molecular target: Apobec3G R136A MAPPIT bait (human) (UniProt Q9HC16)
Chain of Apobec3G R136A MAPPIT bait (human) (Q9HC16 whole entry R136A): as the sequence (Q9HC16 whole entry E110S) above, with S110E, R136A counted along it

[12] = molecular target: Apobec3G N20A MAPPIT bait (human) (UniProt Q9HC16)
Chain of Apobec3G N20A MAPPIT bait (human) (Q9HC16 whole entry N20A): as the sequence (Q9HC16 whole entry E110S) above, with N20A, S110E counted along it

[13] = molecular target: Apobec3G P129A MAPPIT bait (human) (UniProt Q9HC16)
Chain of Apobec3G P129A MAPPIT bait (human) (Q9HC16 whole entry P129A): as the sequence (Q9HC16 whole entry E110S) above, with S110E, P129A counted along it

[14] = molecular target: Apobec3G D130A MAPPIT bait (human) (UniProt Q9HC16)
Chain of Apobec3G D130A MAPPIT bait (human) (Q9HC16 whole entry D130A): as the sequence (Q9HC16 whole entry E110S) above, with S110E, D130A counted along it

[15] = molecular target: Apobec3G QE132-133AA MAPPIT bait (human) (UniProt Q9HC16)
Chain of Apobec3G QE132-133AA MAPPIT bait (human) (Q9HC16 whole entry Q132A/E133A): as the sequence (Q9HC16 whole entry E110S) above, with S110E, Q132A, E133A counted along it

[16] = molecular target: Apobec3G YS166-167AA MAPPIT bait (human) (UniProt Q9HC16)
Chain of Apobec3G YS166-167AA MAPPIT bait (human) (Q9HC16 whole entry Y166A/S167A): as the sequence (Q9HC16 whole entry E110S) above, with S110E, Y166A, S167A counted along it

Chain of Apobec3G TF106-107AA MAPPIT bait (human) (Q9HC16 whole entry T106A/F107A): as the sequence (Q9HC16 whole entry E110S) above, with T106A, F107A, S110E counted along it

Substance: Gagpol MAPPIT prey (pMG2-Gagpol) (natural protein)
- MAPPIT signal, % of WT [1]: 94 % of WT
- MAPPIT signal, % of WT [2]: 80 % of WT
- MAPPIT signal, % of WT [3]: 118 % of WT
- MAPPIT signal, % of WT [4]: 71 % of WT
- MAPPIT signal, % of WT [5]: 106 % of WT
- MAPPIT signal, % of WT [6]: 111 % of WT
- MAPPIT signal, % of WT [7]: 50 % of WT
- MAPPIT signal, % of WT [8]: 61 % of WT
- MAPPIT signal, % of WT [9]: 63 % of WT
- MAPPIT signal, % of WT [10]: 96 % of WT
- MAPPIT signal, % of WT [11]: 48 % of WT
- MAPPIT signal, % of WT [12]: 71 % of WT
- MAPPIT signal, % of WT [13]: 70 % of WT
- MAPPIT signal, % of WT [14]: 103 % of WT
- MAPPIT signal, % of WT [15]: 80 % of WT
- MAPPIT signal, % of WT [16]: 80 % of WT
